The values that follow come from the supplement of paper PMC9112550, “Optimization of the antimicrobial peptide Bac7 by deep mutational scanning” (BMC Biology, 2022).

The subject of this data set is Escherichia coli TOP10. The data set can be described thus: shrunken log2 fold change of peptide-encoding DNA abundance (4.5 h post-induction vs induction); higher = less antimicrobial activity (less host growth inhibition). The following applies: time post-induction: 4.5 h; library: site-saturation at positions 5, 18, 19, 20.
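Note: peptides expressed intracellularly from a pBAD plasmid library in pooled LB shake-flask culture, induced with 0.3% L-arabinose, DNA abundance read by NGS, three biological replicates, DESeq2 with apeglm shrinkage.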

RRIRERPPRLPRPRPRPMIRPRP: the “shrunken log2 fold change” value is 0.0011. In the case of RRIRKRPPRLPRPRPRPYHEPRP it was -0.112; in that of RRIRRRPPRLPRPRPRPWKAPRP, 0.0256.

On to RRIRDRPPRLPRPRPRPVLKPRP, for which the “shrunken log2 fold change” value amounted to 0.0359. As to RRIRYRPPRLPRPRPRPHAQPRP, the “shrunken log2 fold change” value is -0.0405.

Regarding RRIRLRPPRLPRPRPRPGIAPRP, the “shrunken log2 fold change” value was -0.206. In the case of RRIRWRPPRLPRPRPRPKEKPRP it was 0.0316; in that of RRIRYRPPRLPRPRPRPGMQPRP, -0.224; in that of RRIRSRPPRLPRPRPRPPYVPRP, -0.215.

Consider RRIRARPPRLPRPRPRPHYWPRP, for which the “shrunken log2 fold change” value is -0.658.

Consider RRIRWRPPRLPRPRPRPPTGPRP, for which the “shrunken log2 fold change” value was 0.23. RRIRMRPPRLPRPRPRPSFPPRP: the “shrunken log2 fold change” value is -0.222. Consider RRIRQRPPRLPRPRPRPVACPRP, for which the “shrunken log2 fold change” value is -0.0393. RRIRRRPPRLPRPRPRPQAQPRP: the “shrunken log2 fold change” value is 0.0393.

In the case of RRIRHRPPRLPRPRPRPIPMPRP, the “shrunken log2 fold change” value is -0.0582.

For the sequence RRIRCRPPRLPRPRPRPDRCPRP, the “shrunken log2 fold change” value is 0.16. Regarding RRIRRRPPRLPRPRPRPGQSPRP, the “shrunken log2 fold change” value turned out to be 0.155.

Turning to RRIRVRPPRLPRPRPRPIYVPRP, the “shrunken log2 fold change” value is -0.0279.

Regarding RRIRPRPPRLPRPRPRPMCTPRP, the “shrunken log2 fold change” value is 0.108.

Take RRIRGRPPRLPRPRPRPCHRPRP: the “shrunken log2 fold change” value came to 0.207. Take RRIRPRPPRLPRPRPRPHESPRP: the “shrunken log2 fold change” value was found to be 0.0891. As for RRIRPRPPRLPRPRPRPGNAPRP, the “shrunken log2 fold change” value is 0.34. Take RRIRDRPPRLPRPRPRPQIIPRP: the “shrunken log2 fold change” value amounted to 0.0399. In the case of RRIRDRPPRLPRPRPRPKPFPRP, the “shrunken log2 fold change” value was 0.013.

For the sequence RRIRKRPPRLPRPRPRPDAMPRP, the “shrunken log2 fold change” value is 0.618. In the case of RRIRGRPPRLPRPRPRPVDVPRP it was 0.447; in that of RRIRGRPPRLPRPRPRPDAKPRP, 2. For RRIRNRPPRLPRPRPRPGPTPRP, the “shrunken log2 fold change” value was 0.3. Take RRIRSRPPRLPRPRPRPMSVPRP: the “shrunken log2 fold change” value is -0.0847. In the case of RRIRGRPPRLPRPRPRPVLCPRP it was 0.635; in that of RRIRRRPPRLPRPRPRPLHVPRP, -0.125. On to RRIRDRPPRLPRPRPRPCFFPRP, for which the “shrunken log2 fold change” value stood at 0.304.

Turning to RRIRGRPPRLPRPRPRPDGMPRP, the “shrunken log2 fold change” value was determined as 0.86.

Take RRIRCRPPRLPRPRPRPSANPRP: the “shrunken log2 fold change” value was found to be 0.0237. Turning to RRIRGRPPRLPRPRPRPIVLPRP, the “shrunken log2 fold change” value was -0.0411. In the case of RRIRARPPRLPRPRPRPVPGPRP it was 0.672; in that of RRIRQRPPRLPRPRPRPRWGPRP, 0.447. On to RRIRNRPPRLPRPRPRPFNGPRP, for which the “shrunken log2 fold change” value is -0.0926. In the case of RRIRHRPPRLPRPRPRPPICPRP it was -0.0463; in that of RRIRHRPPRLPRPRPRPFMCPRP, -0.57. In the case of RRIRRRPPRLPRPRPRPPMEPRP it was -0.0681; in that of RRIRKRPPRLPRPRPRPAACPRP, 0.987.

On to RRIRIRPPRLPRPRPRPPTGPRP, for which the “shrunken log2 fold change” value was 0.209.

As to RRIRQRPPRLPRPRPRPTFKPRP, the “shrunken log2 fold change” value is -0.225. In the case of RRIRHRPPRLPRPRPRPPGLPRP it was 0.0255. Regarding RRIRFRPPRLPRPRPRPTYTPRP, the “shrunken log2 fold change” value was -0.719. In the case of RRIRVRPPRLPRPRPRPIQNPRP it was -0.121. For the sequence RRIRYRPPRLPRPRPRPTAHPRP, the “shrunken log2 fold change” value was -0.466. As to RRIRDRPPRLPRPRPRPTHAPRP, the “shrunken log2 fold change” value turned out to be 0.148.

Turning to RRIRIRPPRLPRPRPRPWPPPRP, the “shrunken log2 fold change” value is 0.0965. Consider RRIRERPPRLPRPRPRPNCYPRP, for which the “shrunken log2 fold change” value is -0.342. In the case of RRIRVRPPRLPRPRPRPRADPRP, the “shrunken log2 fold change” value is 0.43. In the case of RRIRIRPPRLPRPRPRPIRGPRP it was -0.0199. Turning to RRIRYRPPRLPRPRPRPRHSPRP, the “shrunken log2 fold change” value is -0.127.

Regarding RRIRYRPPRLPRPRPRPKSNPRP, the “shrunken log2 fold change” value was -0.206. In the case of RRIRFRPPRLPRPRPRPEESPRP it was 0.195; in that of RRIRGRPPRLPRPRPRPARVPRP, 0.614; in that of RRIRMRPPRLPRPRPRPMVFPRP, 0.0369. In the case of RRIRKRPPRLPRPRPRPYDPPRP it was 0.0113; in that of RRIRYRPPRLPRPRPRPRIDPRP, -0.174; in that of RRIRTRPPRLPRPRPRPVFRPRP, -0.516.

With RRIRWRPPRLPRPRPRPNAYPRP, the “shrunken log2 fold change” value is -0.214.

As for RRIRFRPPRLPRPRPRPNAHPRP, the “shrunken log2 fold change” value was determined as 0.0459. In the case of RRIRHRPPRLPRPRPRPVIPPRP it was -0.0562. In the case of RRIRKRPPRLPRPRPRPVNDPRP it was 0.00208; in that of RRIRHRPPRLPRPRPRPTQAPRP, 0.255; in that of RRIRDRPPRLPRPRPRPHLKPRP, 0.143. Turning to RRIRIRPPRLPRPRPRPFTRPRP, the “shrunken log2 fold change” value was found to be 0.114. In the case of RRIRGRPPRLPRPRPRPPNWPRP it was 0.862. In the case of RRIRKRPPRLPRPRPRPWRYPRP, the “shrunken log2 fold change” value is -0.00865. In the case of RRIRCRPPRLPRPRPRPVLSPRP it was -0.192; in that of RRIRTRPPRLPRPRPRPIRDPRP, -0.288. Take RRIRTRPPRLPRPRPRPIGWPRP: the “shrunken log2 fold change” value is 0.6.

As to RRIRRRPPRLPRPRPRPKHQPRP, the “shrunken log2 fold change” value stood at 1.57. Take RRIRPRPPRLPRPRPRPRWAPRP: the “shrunken log2 fold change” value came to 0.394. Turning to RRIRFRPPRLPRPRPRPHWTPRP, the “shrunken log2 fold change” value is -0.301. In the case of RRIRGRPPRLPRPRPRPWHCPRP it was -0.0173; in that of RRIRWRPPRLPRPRPRPSGMPRP, 0.104; in that of RRIRERPPRLPRPRPRPKLTPRP, 0.21. In the case of RRIRIRPPRLPRPRPRPTINPRP it was -0.65. In the case of RRIRYRPPRLPRPRPRPMWLPRP it was -0.224. As to RRIRYRPPRLPRPRPRPEMIPRP, the “shrunken log2 fold change” value amounted to 0.0135. In the case of RRIRERPPRLPRPRPRPIEKPRP it was 0.00242; in that of RRIRARPPRLPRPRPRPHEFPRP, 0.293; in that of RRIRMRPPRLPRPRPRPRGIPRP, 0.0677. In the case of RRIRVRPPRLPRPRPRPEHLPRP it was -0.171; in that of RRIRRRPPRLPRPRPRPSNNPRP, -0.303; in that of RRIRERPPRLPRPRPRPHHQPRP, -0.318. In the case of RRIRRRPPRLPRPRPRPEVKPRP it was 0.418.

With RRIRGRPPRLPRPRPRPQFKPRP, the “shrunken log2 fold change” value was found to be 0.0112.

Consider RRIRQRPPRLPRPRPRPTVFPRP, for which the “shrunken log2 fold change” value was -0.0987. In the case of RRIRFRPPRLPRPRPRPRQVPRP it was -0.331. Turning to RRIRLRPPRLPRPRPRPNRPPRP, the “shrunken log2 fold change” value was -0.0609. With RRIRNRPPRLPRPRPRPEDSPRP, the “shrunken log2 fold change” value was -0.0784.

As for RRIRSRPPRLPRPRPRPNRIPRP, the “shrunken log2 fold change” value is -0.304. On to RRIRVRPPRLPRPRPRPETEPRP, for which the “shrunken log2 fold change” value stood at 0.276.

Regarding RRIRWRPPRLPRPRPRPSGRPRP, the “shrunken log2 fold change” value stood at 0.201.

For RRIRIRPPRLPRPRPRPASQPRP, the “shrunken log2 fold change” value was -0.073. In the case of RRIRPRPPRLPRPRPRPMTDPRP, the “shrunken log2 fold change” value stood at 0.0653. RRIRIRPPRLPRPRPRPYGYPRP: the “shrunken log2 fold change” value was -0.0764. In the case of RRIRCRPPRLPRPRPRPHRPPRP it was -0.0186. Regarding RRIRQRPPRLPRPRPRPMIGPRP, the “shrunken log2 fold change” value turned out to be 0.0241. As for RRIRFRPPRLPRPRPRPRVEPRP, the “shrunken log2 fold change” value turned out to be 0.61. For the sequence RRIRDRPPRLPRPRPRPWHCPRP, the “shrunken log2 fold change” value was found to be 0.102. RRIRARPPRLPRPRPRPYEQPRP: the “shrunken log2 fold change” value was found to be 0.0674. In the case of RRIRCRPPRLPRPRPRPRCWPRP it was 0.502.

For the sequence RRIRYRPPRLPRPRPRPCCEPRP, the “shrunken log2 fold change” value was -0.567.

Take RRIRLRPPRLPRPRPRPQNHPRP: the “shrunken log2 fold change” value is -0.683.

Regarding RRIRYRPPRLPRPRPRPKFDPRP, the “shrunken log2 fold change” value is -0.138. Regarding RRIRTRPPRLPRPRPRPWRCPRP, the “shrunken log2 fold change” value was -0.00386. Regarding RRIRARPPRLPRPRPRPPPMPRP, the “shrunken log2 fold change” value stood at 1.1. In the case of RRIRNRPPRLPRPRPRPPFVPRP it was 0.164; in that of RRIRIRPPRLPRPRPRPDPWPRP, 0.0621; in that of RRIRHRPPRLPRPRPRPWWYPRP, -0.0664.

For the sequence RRIRLRPPRLPRPRPRPVSQPRP, the “shrunken log2 fold change” value turned out to be 0.0349. In the case of RRIRERPPRLPRPRPRPINLPRP it was -0.338; in that of RRIRMRPPRLPRPRPRPKKYPRP, 1.26; in that of RRIRFRPPRLPRPRPRPFMGPRP, -0.348. Consider RRIRWRPPRLPRPRPRPMYWPRP, for which the “shrunken log2 fold change” value came to 0.0085. Turning to RRIRVRPPRLPRPRPRPELCPRP, the “shrunken log2 fold change” value was found to be 0.0749. In the case of RRIRPRPPRLPRPRPRPHEMPRP it was -0.142; in that of RRIRVRPPRLPRPRPRPGKKPRP, 0.0628; in that of RRIRQRPPRLPRPRPRPFPPPRP, -0.0272. In the case of RRIRFRPPRLPRPRPRPDQHPRP it was -0.34. In the case of RRIRVRPPRLPRPRPRPHWVPRP it was -0.152.
